Laboratory results from the supplement of paper PMC9112550, “Optimization of the antimicrobial peptide Bac7 by deep mutational scanning” (BMC Biology, 2022).

test system: Escherichia coli TOP10; experiment: shrunken log2 fold change of peptide-encoding DNA abundance (4.5 h post-induction vs induction); higher = less antimicrobial activity (less host growth inhibition); conditions: time post-induction: 4.5 h; library: site-saturation at positions 5, 18, 19, 20
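Note: peptides expressed intracellularly from a pBAD plasmid library in pooled LB shake-flask culture, induced with 0.3% L-arabinose, DNA abundance read by NGS, three biological replicates, DESeq2 with apeglm shrinkage.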

Row | Sequence | shrunken log2 fold change
1 | RRIRKRPPRLPRPRPRPWMHPRP | 0.00994
2 | RRIRKRPPRLPRPRPRPWNHPRP | -0.172
3 | RRIRKRPPRLPRPRPRPWNRPRP | -0.078
4 | RRIRKRPPRLPRPRPRPWPHPRP | 0.298
5 | RRIRKRPPRLPRPRPRPWRAPRP | 0.5
6 | RRIRKRPPRLPRPRPRPWSQPRP | -0.0225
7 | RRIRKRPPRLPRPRPRPWTGPRP | -0.0587
8 | RRIRKRPPRLPRPRPRPWVRPRP | -0.0489
9 | RRIRKRPPRLPRPRPRPWWQPRP | 0.0795
10 | RRIRKRPPRLPRPRPRPWYNPRP | -0.00192
11 | RRIRKRPPRLPRPRPRPYCFPRP | -0.258
12 | RRIRKRPPRLPRPRPRPYDGPRP | -0.0976
13 | RRIRKRPPRLPRPRPRPYFSPRP | -0.178
14 | RRIRKRPPRLPRPRPRPYHGPRP | -0.000893
15 | RRIRKRPPRLPRPRPRPYHLPRP | -0.0564
16 | RRIRKRPPRLPRPRPRPYIFPRP | -0.129
17 | RRIRKRPPRLPRPRPRPYKDPRP | -0.213
18 | RRIRKRPPRLPRPRPRPYKEPRP | -0.417
19 | RRIRKRPPRLPRPRPRPYKMPRP | -0.47
20 | RRIRKRPPRLPRPRPRPYKSPRP | -0.243
21 | RRIRKRPPRLPRPRPRPYLMPRP | -0.0192
22 | RRIRKRPPRLPRPRPRPYLVPRP | -0.634
23 | RRIRKRPPRLPRPRPRPYMCPRP | -0.0998
24 | RRIRKRPPRLPRPRPRPYMDPRP | -0.763
25 | RRIRKRPPRLPRPRPRPYPIPRP | 0.11

Row | Sequence | shrunken log2 fold change
26 | RRIRKRPPRLPRPRPRPYQAPRP | 0.134
27 | RRIRKRPPRLPRPRPRPYQVPRP | 0.0805
28 | RRIRKRPPRLPRPRPRPYSAPRP | -0.134
29 | RRIRKRPPRLPRPRPRPYTGPRP | -0.318
30 | RRIRKRPPRLPRPRPRPYTKPRP | -0.138
31 | RRIRKRPPRLPRPRPRPYTRPRP | -0.167
32 | RRIRKRPPRLPRPRPRPYVKPRP | -0.312
33 | RRIRKRPPRLPRPRPRPYVYPRP | -0.154
34 | RRIRKRPPRLPRPRPRPYYHPRP | 0.158
35 | RRIRLRPPRLPRPRPRPACWPRP | 0.498
36 | RRIRLRPPRLPRPRPRPAFQPRP | 0.108
37 | RRIRLRPPRLPRPRPRPAGDPRP | 0.297
38 | RRIRLRPPRLPRPRPRPAGLPRP | 0.102
39 | RRIRLRPPRLPRPRPRPAHHPRP | 0.0653
40 | RRIRLRPPRLPRPRPRPAHPPRP | 0.522
41 | RRIRLRPPRLPRPRPRPAIDPRP | -0.283
42 | RRIRLRPPRLPRPRPRPAIMPRP | -0.16
43 | RRIRLRPPRLPRPRPRPAINPRP | -0.157
44 | RRIRLRPPRLPRPRPRPAKAPRP | 0.271
45 | RRIRLRPPRLPRPRPRPAKWPRP | 0.388
46 | RRIRLRPPRLPRPRPRPAMRPRP | 0.28
47 | RRIRLRPPRLPRPRPRPANFPRP | 0.0302
48 | RRIRLRPPRLPRPRPRPANKPRP | -0.0711
49 | RRIRLRPPRLPRPRPRPAPAPRP | 0.512
50 | RRIRLRPPRLPRPRPRPAPWPRP | 0.354

Row | Sequence | shrunken log2 fold change
51 | RRIRLRPPRLPRPRPRPAQFPRP | 0.28
52 | RRIRLRPPRLPRPRPRPARQPRP | 0.281
53 | RRIRLRPPRLPRPRPRPASCPRP | 0.117
54 | RRIRLRPPRLPRPRPRPATAPRP | 0.214
55 | RRIRLRPPRLPRPRPRPAVLPRP | -0.0831
56 | RRIRLRPPRLPRPRPRPAVTPRP | -0.0968
57 | RRIRLRPPRLPRPRPRPAWIPRP | 0.0321
58 | RRIRLRPPRLPRPRPRPAWPPRP | 0.42
59 | RRIRLRPPRLPRPRPRPAYDPRP | -0.00456
60 | RRIRLRPPRLPRPRPRPCANPRP | -0.212
61 | RRIRLRPPRLPRPRPRPCCIPRP | -0.0547
62 | RRIRLRPPRLPRPRPRPCCRPRP | 0.0477
63 | RRIRLRPPRLPRPRPRPCDNPRP | -0.161
64 | RRIRLRPPRLPRPRPRPCEFPRP | -0.032
65 | RRIRLRPPRLPRPRPRPCFEPRP | -0.0179
66 | RRIRLRPPRLPRPRPRPCFNPRP | -0.774
67 | RRIRLRPPRLPRPRPRPCGKPRP | -0.196
68 | RRIRLRPPRLPRPRPRPCILPRP | -0.411
69 | RRIRLRPPRLPRPRPRPCKFPRP | -0.463
70 | RRIRLRPPRLPRPRPRPCKVPRP | 0.00893
71 | RRIRLRPPRLPRPRPRPCMYPRP | -0.674
72 | RRIRLRPPRLPRPRPRPCNDPRP | -0.101
73 | RRIRLRPPRLPRPRPRPCNPPRP | -0.000687
74 | RRIRLRPPRLPRPRPRPCQKPRP | -0.17
75 | RRIRLRPPRLPRPRPRPCQPPRP | -0.0919
